Where two headings read alike, the source gives them in different places.

Test [1] deals with T1, murine basigin extracellular domain, murine Fc tagged (murine).
T1 construct: also called mBsg ECD; murine basigin (ELISA antigen)
T1 chain: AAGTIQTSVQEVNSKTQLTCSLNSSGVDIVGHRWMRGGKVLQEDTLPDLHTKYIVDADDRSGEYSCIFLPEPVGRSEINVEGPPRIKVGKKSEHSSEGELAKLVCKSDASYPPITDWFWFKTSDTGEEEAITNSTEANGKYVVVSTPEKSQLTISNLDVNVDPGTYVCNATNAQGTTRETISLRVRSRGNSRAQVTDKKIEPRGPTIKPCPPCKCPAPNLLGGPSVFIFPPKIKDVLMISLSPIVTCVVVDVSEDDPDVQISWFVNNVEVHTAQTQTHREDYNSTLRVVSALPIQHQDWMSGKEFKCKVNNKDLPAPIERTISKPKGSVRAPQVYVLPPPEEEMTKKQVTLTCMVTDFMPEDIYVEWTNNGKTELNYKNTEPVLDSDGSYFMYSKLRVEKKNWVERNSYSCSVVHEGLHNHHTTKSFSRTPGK
The test is described as follows: competitive ELISA on coated murine basigin against biotinylated bispecific antibody. Here is the method: Nunc 96-well Maxisorp immunoplates were coated overnight at 4° C. with antigen (2 μg/ml) and blocked for 1 hour at room temperature with blocking buffer PBST. Serial dilutions of bivalent or bispecific antibodies were subsequently added to the plates with a sub-saturating concentration of biotinylated bispecific antibody at room temperature for 1 hour. Plates were washed with wash buffer (PBS with 0.05% Tween 20) and incubated for 30 minutes with horseradish peroxidase (HRP)-conjugated streptavidin, and developed with tetramethylbenzidine (TMB) substrate. Absorbance was measured spectrophotometrically at 650 nm.

Test [2] addresses T1, murine basigin extracellular domain, …. The test is described as follows: Biacore; 'Binding affinity (nM)'; form of the antigen not stated. Background: SPR reads the build-up and loss of mass on a sensor chip optically.
The target of test [3] is murine basigin extracellular domain, murine Fc tagged (murine). The test is described as follows: competitive ELISA on coated murine basigin against biotinylated bispecific antibody. (An ELISA detects its analyte on a solid surface through an enzyme-linked reagent.)
The next test addresses T2, murine Glut1 (on cells) (murine, UniProt P17809 1-492).
T2 construct: whole, on cells; also called glucose transporter 1; Slc2a1
T2 sequence (looked up): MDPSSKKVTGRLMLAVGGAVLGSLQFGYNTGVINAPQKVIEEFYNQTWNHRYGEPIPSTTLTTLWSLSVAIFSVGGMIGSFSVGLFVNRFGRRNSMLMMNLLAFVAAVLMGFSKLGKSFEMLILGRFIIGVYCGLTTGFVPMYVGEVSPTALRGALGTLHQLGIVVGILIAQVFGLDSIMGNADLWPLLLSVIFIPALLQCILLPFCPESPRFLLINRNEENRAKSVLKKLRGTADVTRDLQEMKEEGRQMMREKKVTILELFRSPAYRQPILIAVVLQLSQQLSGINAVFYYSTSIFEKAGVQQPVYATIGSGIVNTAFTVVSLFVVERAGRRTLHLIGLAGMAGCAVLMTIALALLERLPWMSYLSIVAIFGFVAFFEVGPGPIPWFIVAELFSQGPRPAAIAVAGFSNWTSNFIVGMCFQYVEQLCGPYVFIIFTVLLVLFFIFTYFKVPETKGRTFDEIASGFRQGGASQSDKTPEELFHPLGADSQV
The test is described as follows: flow cytometry (MFI) on HEK293 cells stably expressing Glut1; bivalent (monospecific) anti-Glut1, not the bispecific anti-Glut1/BACE1. Here is the method:
Purified antibodies were screened on 293 cells transfected with the corresponding antigens. Cells were collected from flasks/dishes, washed with phosphate-buffered saline (PBS), and added to 96-well U-bottom plates (BD Falcon 353077, BD, Franklin Lakes, N.J.) at 1,000,000 cells per well. Samples were added to cells (100 μL/well) and incubated at 4° C. for 30-60 minutes. Plates were then centrifuged (1200 rpm, 5 minutes, 4° C.) and washed twice with PBS/1% FBS (200 μl per well). R-Phycoerythrin-conjugated Ziege anti-human IgG Fc (Jackson ImmunoReseach Laboratories Inc. (West Grove, Pa.); 109-116-098; 100 μl diluted in PBS) was then added and the plates incubated at 4° C. (covered) for 30 minutes. After the final wash, the cells were fixed in PBS containing 1% formalin, and read using a FACSCalibur™ flow cytometer (BD Biosciences, San Jose, Calif.). Mean fluorescence intensity (MFI) of each sample was then measured using the FlowJo software (Treestar, Inc., Ashland, Oreg.).
On the technique in general: In flow cytometry, cells or beads pass a laser one at a time.

B1: anti-Bsg^A (antibody, V domains shown)
VH: EVQLVESGGGLVLPGRSMKLSCAASGFTFRTYYMAWVRQAPTKGLEWVASISIGGDNTYYRDSVMGRFTISRDDAKSTLHLQMDNLRSEDTATYYCVRLRGYFDYWGQGVMVTVSS
VL: EIVLTQSPATMPASPGEKVTLTCRASSSIRYIYWYQQKSGTSPKLWIYDTSKLASGVPNRFSGSGSGTSYSLTISSMETEDTATYYCQQGRSYPLTFGSGTKLEIK
notes: also called bivalent (monospecific) anti-Bsg^A
What is called IC50 is the concentration at which inhibition is half-maximal. A low value points to inhibition by little substance. The term Kd denotes the equilibrium constant for the complex coming apart. In the case of B1, the IC50 in test [1] was determined as 7.1 nM; in test [3] it was 106 nM. This molecule yielded a Kd in test [2] of 13.5 nM.

B2: anti-Bsg^B (antibody, V domains shown)
VH: EVQLVESGGGLVQPGRSLKLSCVASGFTFNNYWMTWIRQAPGKGLEWFASITNTGGSTYYPDSVKGRFTISRDNAQSTLYLQTNSLRPEDTATYYCARRDGSYYPYYWYFDLWGPGTTVTVSS
VL: NTVMTQSPTSMFISVGDRVTMNCKASRSVGTNVDWYQQKTGQSPTLLFYGASNRYIGVPDRFTGSGSGTDFTLTISNMQAEDLAVYYCLQYNYNWAFGGGTKLELK
notes: also called bivalent (monospecific) anti-Bsg^B
Consider B2, for which the half-maximal inhibitory concentration (IC50) in test [1] turned out to be 17.5 nM; in test [3], 127 nM. The Kd in test [2] worked out at 102 nM.

B3: anti-Glut1 antibody (antibody, V domains shown)
VH: QVQLQQPGSVLVRPGASVKLSCKASGYTFTGSWLHWAKQRPGQGLEWIGEIHPYSGNTNYNERFKGKATLTVDTPSSTAYVDLRSLTFEDSAVYYCAKEGGWFLRIYGMDYWGQGTSVTVSS
VL: DIVLTQSPSSLSASLGDTITITCHASQNINVWLSWYQQKPGNIPKLLIYKASNLHSGVPSRFSGSGSGTGFTLTISSLQPEDIATYYCQQGQTFPYTFGGGTRLEIK
notes: Raised by DNA immunization with hGlut1 cDNA; also called bivalent (monospecific) anti-Glut1
By EC50 is commonly meant the concentration needed to bring the measured effect to its halfway point. With B3, the response in the test with murine Glut1 (on cells) was half-maximal at 0.6 µg/mL (EC50).

(Values after patent US20180000964A1 (Genentech, published 2018).)
